From patent US20240228586

Molecular target: M-L2-IL12 (masked mouse IL-12 whose linker contains 3 repeats of VPLSLYSG), Q60837
Sequence (Q60837 whole entry, looked up): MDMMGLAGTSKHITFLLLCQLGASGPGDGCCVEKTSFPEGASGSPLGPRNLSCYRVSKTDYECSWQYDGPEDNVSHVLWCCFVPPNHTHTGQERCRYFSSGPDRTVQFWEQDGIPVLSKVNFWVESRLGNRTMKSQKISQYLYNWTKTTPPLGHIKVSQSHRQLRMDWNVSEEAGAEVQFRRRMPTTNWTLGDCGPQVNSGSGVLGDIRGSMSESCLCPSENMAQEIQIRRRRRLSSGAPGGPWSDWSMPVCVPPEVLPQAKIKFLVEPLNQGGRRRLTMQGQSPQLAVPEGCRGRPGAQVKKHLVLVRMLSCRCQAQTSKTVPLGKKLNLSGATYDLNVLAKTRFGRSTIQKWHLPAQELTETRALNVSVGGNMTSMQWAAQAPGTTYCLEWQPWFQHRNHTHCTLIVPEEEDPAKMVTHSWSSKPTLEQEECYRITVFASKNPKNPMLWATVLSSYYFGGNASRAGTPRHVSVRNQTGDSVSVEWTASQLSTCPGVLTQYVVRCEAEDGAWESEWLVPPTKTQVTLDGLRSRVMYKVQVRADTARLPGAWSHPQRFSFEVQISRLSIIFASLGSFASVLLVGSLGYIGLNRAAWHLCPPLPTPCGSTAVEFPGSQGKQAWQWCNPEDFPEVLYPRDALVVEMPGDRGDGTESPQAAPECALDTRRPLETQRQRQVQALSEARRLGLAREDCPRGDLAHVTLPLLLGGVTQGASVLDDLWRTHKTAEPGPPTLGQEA

B1: recombinant mouse matrix metalloproteinase-9 (protein)
chain: FQTFKGLKWDHHNITYWIQNYSEDLPRDMIDDAFARAFAVWGEVAPLTFTRVYGPEADIVIQFGVAEHGDGYPFDGKDGLLAHAFPPGAGVQGDAHFDDDELWSLGKGVVIPTYYGNSNGAPCHFPFTFEGRSYSACTTDGRNDGTPWCSTTADYDKDGKFGFCPSERLYTEHGNGEGKPCVFPFIFEGRSYSACTTKGRSDGYRWCATTANYDQDKLYGFCPTRVDATVVGGNSAGELCVFPFVFLGKQYSSCTSDGRRDGRLWCATTSNFDTDKKWGFCPDQGYSLFLVAAHEFGHALGLDHSSVPEALMYPLYSYLEGFPLNKDDIDGIQYLYGRGSKPDPRPPATTTTEPQPTAPPTMCPTIPPTAYPTVGPTVGPTGAPSPGPTSSPSPGPTGAPSPGPTAPPTAGSSEASTESLSPADNPCNVDVFDAIAEIQGALHFFKDGWYWKFLNHRGSPLQGPFLTARTWPALPATLDSAFEDPQTKRVFFFSGRQMWVYTGKTVLGPRSLDKLGLGPEVTHVSGLLPRRLGKALLFSKGRVWRFDLKSQKVDPQSVIRVDKEFSGVPWNSHDIFQYQDKAYFCHGKFFWRVSFQNEVNKVDHEVNQVDDVGYVTYDLLQCP
**Q.** Which “in vitro cleavage, 30 min at 37° C., SDS-PAGE” value does the source give for B1 here?
**A.** Decrease of molecular weight from ˜105 kDa to ˜60 kDa indicates proteolytic cleavage of IL12Rβ1-VP-IL12 and IL12Rβ1-LS-IL12
